Results taken from patent US20220356255A1 (CENTESSA PHARMACEUTICALS UK, published 2022).

Legend:
[1] = target: T1, human PD-L1-Fc protein (human, UniProt Q9NZQ7 19-239); assay: ELISA, Fab on coated human PD-L1-Fc; ratio from extrapolating an OD of 0.3 at pH 6 versus pH 7.4
T1 construct: Bought from R&D Systems; also called immobilised PD-L1-Fc; not shown: Fc part of the bought fusion protein, not described

[2] = target: T2, biotinylated human PD-L1 (human, UniProt Q9NZQ7 19-239, limits assumed, biotinylated (sites not given)); assay: competition ELISA, Fab with biotinylated PD-L1 on coated PD-1-Fc, pH 7.4
T2 construct: Bought from R&D Systems; also called biotinylated-PD-L1; human PD-L1 biotin
T2 sequence (Q9NZQ7 19-239 limits assumed): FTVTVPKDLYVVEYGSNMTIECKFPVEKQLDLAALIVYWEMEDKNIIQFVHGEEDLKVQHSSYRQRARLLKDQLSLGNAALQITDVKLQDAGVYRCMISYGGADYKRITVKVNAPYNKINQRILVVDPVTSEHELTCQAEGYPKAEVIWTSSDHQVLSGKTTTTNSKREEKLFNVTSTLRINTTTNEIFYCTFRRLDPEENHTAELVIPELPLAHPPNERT

[3] = target: T3, human PD-L1 on cells (human, UniProt Q9NZQ7 19-290); assay: flow cytometry on MDA-MB-231 cells, Krebs buffer, pH 6.5
T3 construct: Endogenous on MDA-MB-231 cells or transfected into HEK293FF cells (Sino Biological plasmid); the assay field says which; also called native PD-L1 on MDA-MB-231 cells; PD-L1 expressing MDA-MB-231 cells
T3 sequence (Q9NZQ7 19-290 limits assumed): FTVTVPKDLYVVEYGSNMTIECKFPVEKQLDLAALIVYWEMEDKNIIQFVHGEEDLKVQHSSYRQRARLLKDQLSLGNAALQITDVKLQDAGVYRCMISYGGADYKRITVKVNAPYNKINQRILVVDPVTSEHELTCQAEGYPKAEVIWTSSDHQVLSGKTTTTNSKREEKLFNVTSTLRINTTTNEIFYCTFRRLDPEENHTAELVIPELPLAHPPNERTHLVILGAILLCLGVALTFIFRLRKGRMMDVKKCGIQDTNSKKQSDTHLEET
Procedure: (§1) Anti-PD-L1 affinity matured Fabs were tested for their ability to bind to native PD-L1 in a cell line, (MDA-MB-231 cells) in a buffer resembling the tumor microenvironment (Krebs-lactate).

[4] = target: T3, human PD-L1 on cells; assay: flow cytometry on MDA-MB-231 cells, Krebs buffer; ratio of EC50 values
Procedure: as §1

[5] = target: T3, human PD-L1 on cells; assay: flow cytometry on MDA-MB-231 cells, Krebs buffer, pH 6
Procedure: as §1

[6] = target: T1, human PD-L1-Fc protein; assay: BIAcore off rate, unpurified periplasmic extract Fab on PD-L1
[7] = target: T2, biotinylated human PD-L1; assay: competition ELISA, Fab with biotinylated PD-L1 on coated PD-1-Fc, pH 6
[8] = target: T3, human PD-L1 on cells; assay: flow cytometry on MDA-MB-231 cells, Krebs-lactate buffer, pH 6 versus pH 7.4
Procedure: In order to mimic an acidic tumor environment milieu with tumor cells expressing PD-L1 (The metabolism of tumors in the body, Warburg et al. J Gen Physiol. 1927; 8:519-30) the following buffers were utilised: Krebs ringer bicarbonate buffer (KRB, Amsbio catalog number KRB-1000) with 1 mM lactic acid (Sigma catalog number 252476-50DG) for pH 7.4; KRB plus 15 mM lactic acid for pH 6.5 and KRB plus 20 mM lactic acid for pH 6.0). 3 fold dilutions (100 nM to 0.0005 nM; 0) of the Fabs or IgG were prepared in the respective pH buffers and incubated with 0.60E05 MDA-MB-231 cells for 60 minutes at 4° C. The cells were then washed 3× with the respective pH buffers, at 300 g for 3 min. The cells were then incubated with 50 μl of anti-human IgG (Fab specific)-FITC (Sigma, catalog number F5512-1ML) at 1:100 dilution in the respective pH buffers. Binding of the IgG or Fab to PD-L1 expressing cells was measured by FACS (Attune Nxt) and a total of 10.000 cells were acquired per sample.
as §1

[9] = target: T1, human PD-L1-Fc protein; assay: ELISA, purified Fab on coated human PD-L1-Fc, pH 6 (FIG. 4)
[10] = target: T1, human PD-L1-Fc protein; assay: ELISA, Fab on coated human PD-L1-Fc, pH 6
[11] = target: T1, human PD-L1-Fc protein; assay: BIAcore off rate, unpurified periplasmic extract Fab on PD-L1, pH 7.4
[12] = target: T3, human PD-L1 on cells; assay: flow cytometry on MDA-MB-231 cells, Krebs buffer, pH 7.4
Procedure: as §1

[13] = target: T2, biotinylated human PD-L1; assay: competition ELISA, Fab with biotinylated PD-L1 on coated PD-1-Fc, pH 6.5
[14] = target: T2, biotinylated human PD-L1; assay: competition ELISA, Fab with biotinylated PD-L1 on coated PD-1-Fc; ratio of IC50 values
[15] = target: T2, biotinylated human PD-L1; assay: competition ELISA, Fab with biotinylated PD-L1 on coated PD-1-Fc, pH 6; remark: listed apart in the source
[16] = target: T1, human PD-L1-Fc protein; assay: BIAcore off rate, unpurified periplasmic extract Fab on PD-L1, pH 6
[17] = target: T1, human PD-L1-Fc protein; assay: ELISA, Fab on coated human PD-L1-Fc, pH 7.4
[18] = target: T2, biotinylated human PD-L1; assay: competition ELISA, Fab with biotinylated PD-L1 on coated PD-1-Fc
[19] = target: T3, human PD-L1 on cells; assay: flow cytometry on MDA-MB-231 cells, pH 6
[20] = target: T3, human PD-L1 on cells; assay: flow cytometry on MDA-MB-231 cells, pH 6.5
[21] = target: T3, human PD-L1 on cells; assay: flow cytometry on MDA-MB-231 cells, pH 7.4

T1 sequence (Q9NZQ7 19-239 limits assumed): as the sequence (Q9NZQ7 19-239 limits assumed) above

Binder | Ratio pH 6:7.4 [1] | IC50 [2] | EC50 [3] | Ratio pH 6:7.4 [4] | EC50 [5] | Ratio pH 6 vs 7.4 [6] | concentration at saturation of binding [9] | EC50 [10] | koff [11] | EC50 [12] | IC50 [13] | Ratio pH 6:7.4 [14] | IC50 [15] | koff [16] | EC50 [17] | EC50 [19] | EC50 [20] | EC50 [21] | other results
Fab 8B06 (Fab, V domains shown, Purified Fab prepared from IgG with the Pierce kit; also called 8B06 Fab) VH: QVQLVQSGGGVVQPGRSLRLSCAASGFTFSSYGMYWVRQAPGKGLEWVAVISYDGSNKYYADSVKGRFTISRDNSKNTLNLQMNSLRAEDTAVYYCAKGALTHWGVVIGDGMDVWGQGTTVTVSS VL: NFMLTQPHSVSESPGKTVTISCRETELSRRLHYVRWYQQRPGSSPTTVIYEDDQRPSGVPDRFSGSIDSSSNSASLTISGLKTEDEADYYCQSFDSTNPWVFGGGTKLTVL | 38 | > 100 nM | 6.4 nM | > 50 | 2 nM | 13 | 4 nM | 0.31 nM | 0.0105 s⁻¹ | > 100 nM | 52.7 nM | > 6.37 | 15.7 nM | 0.00135 s⁻¹ | > 100 nM |  |  |  | fold less (IC50) than the control Fab 2.7A04OPT at pH 6 [7]: ~3 fold; pH binding preference (fold) [8]: > 100 fold; fold less inhibitory activity at pH 6.5 than at pH 6 [18]: ~3 fold
8B06 mAb (antibody, V domains shown, Formatted into an IgG1; also called 8B06 IgG1) VH: QVQLVQSGGGVVQPGRSLRLSCAASGFTFSSYGMYWVRQAPGKGLEWVAVISYDGSNKYYADSVKGRFTISRDNSKNTLNLQMNSLRAEDTAVYYCAKGALTHWGVVIGDGMDVWGQGTTVTVSS VL: NFMLTQPHSVSESPGKTVTISCRETELSRRLHYVRWYQQRPGSSPTTVIYEDDQRPSGVPDRFSGSIDSSSNSASLTISGLKTEDEADYYCQSFDSTNPWVFGGGTKLTVL |  |  |  |  |  |  |  |  |  |  |  |  |  |  |  | 0.14 nM | 0.17 nM | 0.12 nM | 
8D04 mAb (antibody, V domains shown, Formatted into an IgG1; also called 8D04 IgG1) VH: QVQLVQSGGGVVQPGRSLRLSCAASGFTFSSYGMYWVRQAPGKGLEWVAVISYDGSNKYYADSVKGRFTISRDNSKNTLNLQMNSLRAEDTAVYYCAKGALTHWGVVIGDGMDVWGQGTTVTVSS VL: NFMLTQPHSVSESPGKTVTISCRGTGSSFHHKYVRWYQQRPGSSPTTVIYEDDQRPSGVPDRFSGSIDSSSNSASLTISGLKTEDEADYYCQSFDSTNPWVFGGGTKLTVL |  |  |  |  |  |  |  |  |  |  |  |  |  |  |  | 0.11 nM | 0.13 nM | 0.1 nM | 
8A04 mAb (antibody, V domains shown, Formatted into an IgG1; also called 8A04 IgG1) VH: QVQLVQSGGGVVQPGRSLRLSCAASGFTFSSYGMYWVRQAPGKGLEWVAVISYDGSNKYYADSVKGRFTISRDNSKNTLNLQMNSLRAEDTAVYYCAKGALTHWGVVIGDGMDVWGQGTTVTVSS VL: NFMLTQPHSVSESPGKTVTISCMRTGTGNKGHYTRWYQQRPGSSPTTVIYEDDQRPSGVPDRFSGSIDSSSNSASLTISGLKTEDEADYYCQSFDSTNPWVFGGGTKLTVL |  |  |  |  |  |  |  |  |  |  |  |  |  |  |  | 0.09 nM | 0.11 nM | 0.09 nM | 
8D06 mAb (antibody, V domains shown, Formatted into an IgG1; also called 8D06 IgG1) VH: QVQLVQSGGGVVQPGRSLRLSCAASGFTFSSYGMYWVRQAPGKGLEWVAVISYDGSNKYYADSVKGRFTISRDNSKNTLNLQMNSLRAEDTAVYYCAKGALTHWGVVIGDGMDVWGQGTTVTVSS VL: NFMLTQPHSVSESPGKTVTISCVLSPRTHAGHYYRWYQQRPGSSPTTVIYEDDQRPSGVPDRFSGSIDSSSNSASLTISGLKTEDEADYYCQSFDSTNPWVFGGGTKLTVL |  |  |  |  |  |  |  |  |  |  |  |  |  |  |  | 0.11 nM | 0.11 nM | 0.08 nM | 

Continued, in another order:

Ratio pH 6:7.4 [1] | IC50 [2] | EC50 [3] | Ratio pH 6:7.4 [4] | EC50 [5] | Ratio pH 6 vs 7.4 [6] | concentration at saturation of binding [9] | EC50 [10] | koff [11] | EC50 [12] | IC50 [13] | Ratio pH 6:7.4 [14] | IC50 [15] | koff [16] | EC50 [17] | EC50 [19] | EC50 [20] | EC50 [21] | Binder | other results
9 | > 100 nM | 56.4 nM | > 7.41 | 13.5 nM | 10 | 4 nM | 2.63 nM | 0.0275 s⁻¹ | > 100 nM | > 100 nM | > 2.36 | 42.3 nM | 0.00283 s⁻¹ | > 100 nM |  |  |  | Fab 8D04 (Fab, V domains shown, Purified Fab prepared from IgG with the Pierce kit; also called 8D04 Fab) VH: QVQLVQSGGGVVQPGRSLRLSCAASGFTFSSYGMYWVRQAPGKGLEWVAVISYDGSNKYYADSVKGRFTISRDNSKNTLNLQMNSLRAEDTAVYYCAKGALTHWGVVIGDGMDVWGQGTTVTVSS VL: NFMLTQPHSVSESPGKTVTISCRGTGSSFHHKYVRWYQQRPGSSPTTVIYEDDQRPSGVPDRFSGSIDSSSNSASLTISGLKTEDEADYYCQSFDSTNPWVFGGGTKLTVL | pH binding preference (fold) [8]: > 100 fold; fold less potent than Fabs 8D06, 8A04, 8G08 and 8B06 [18]: ~3 fold
 |  |  |  |  |  |  |  |  |  |  |  |  |  |  | 0.08 nM | 0.07 nM | 0.09 nM | 8G08 mAb (antibody, V domains shown, Formatted into an IgG1; also called 8G08 IgG1) VH: QVQLVQSGGGVVQPGRSLRLSCAASGFTFSSYGMYWVRQAPGKGLEWVAVISYDGSNKYYADSVKGRFTISRDNSKNTLNLQMNSLRAEDTAVYYCAKGALTHWGVVIGDGMDVWGQGTTVTVSS VL: NFMLTQPHSVSESPGKTVTISCISNDVPASGHYHRWYQQRPGSSPTTVIYEDDQRPSGVPDRFSGSIDSSSNSASLTISGLKTEDEADYYCQSFDSTNPWVFGGGTKLTVL | 
53 | > 100 nM | 2.95 nM | 8.35 | 1.58 nM | 27 | 4 nM | 0.1 nM | 0.00308 s⁻¹ | 13.2 nM | 41.6 nM | > 8.26 | 12.1 nM | 0.000823 s⁻¹ | > 100 nM |  |  |  | Fab 8G08 (Fab, V domains shown, Purified Fab prepared from IgG with the Pierce kit; also called 8G08 Fab) VH: QVQLVQSGGGVVQPGRSLRLSCAASGFTFSSYGMYWVRQAPGKGLEWVAVISYDGSNKYYADSVKGRFTISRDNSKNTLNLQMNSLRAEDTAVYYCAKGALTHWGVVIGDGMDVWGQGTTVTVSS VL: NFMLTQPHSVSESPGKTVTISCISNDVPASGHYHRWYQQRPGSSPTTVIYEDDQRPSGVPDRFSGSIDSSSNSASLTISGLKTEDEADYYCQSFDSTNPWVFGGGTKLTVL | fold less (IC50) than the control Fab 2.7A04OPT at pH 6 [7]: ~3 fold; fold less inhibitory activity at pH 6.5 than at pH 6 [18]: ~3 fold
